In one data set the target is T1, mouse JIP3[186-505] (mouse, UniProt Q9ESN9-5 186-505).
T1 construct: mouse JIP3, residues 186-505 (holds the leucine zipper); numbers count on UniProt Q9ESN9-5; also called JIP3[186-505] wild type; source: E. coli (BL21, BL21-CodonPlus-RIL or Rosetta), purified
T1 sequence (looked up): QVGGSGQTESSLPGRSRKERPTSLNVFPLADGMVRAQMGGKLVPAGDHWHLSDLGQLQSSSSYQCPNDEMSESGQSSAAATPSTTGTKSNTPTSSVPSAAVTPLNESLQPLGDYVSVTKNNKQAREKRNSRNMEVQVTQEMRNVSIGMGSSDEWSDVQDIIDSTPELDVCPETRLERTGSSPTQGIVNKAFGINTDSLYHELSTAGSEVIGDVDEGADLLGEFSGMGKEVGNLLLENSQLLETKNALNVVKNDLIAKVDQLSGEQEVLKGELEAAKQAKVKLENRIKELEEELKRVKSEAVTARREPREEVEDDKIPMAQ
The data set is described as follows: pull-down; GST-tagged bait on glutathione agarose resin; purified recombinant proteins mixed in 50 mM HEPES, 100 mM NaCl, 5 mM DTT, pH 7.5; 1 h at 4 °C; eluted with 15 mM reduced L-glutathione; SDS-PAGE with Coomassie Blue or immunoblot. The conditions noted are these: both partners purified.

Data set [1] deals with the molecule itself. The data set is described as follows: AUC; sedimentation velocity, 42'000 rpm, 20 °C; 50 mM HEPES, 100 mM NaCl, 0.5 mM TCEP, pH 7.5; c(S) by SEDFIT.

Data on four molecules can be found in paper doi:10.1101/2021.10.11.463801, “JIP3 regulates bi-directional organelle transport in neurons through its interaction with dynein and kinesin-1” (bioRxiv, 2021).

B1: GST-tagged KLC1[185-501] (domain or fragment, human, UniProt Q07866-1 185-501, looked up)
chain: DDPGQGIQQQHSSAAAAAQQGGYEIPARLRTLHNLVIQYASQGRYEVAVPLCKQALEDLEKTSGHDHPDVATMLNILALVYRDQNKYKDAANLLNDALAIREKTLGKDHPAVAATLNNLAVLYGKRGKYKEAEPLCKRALEIREKVLGKDHPDVAKQLNNLALLCQNQGKYEEVEYYYQRALEIYQTKLGPDDPNVAKTKNNLASCYLKQGKFKQAETLYKEILTRAHEREFGSVDDENKPIWMHAEEREECKGKQKDGTSFGEYGGWYKACKVDSPTVTTTLKNLGALYRRQGKFEAAETLEEAAMRSRKQGLDNV
notes: human kinesin light chain 1 (KLC1), residues 185-501 (TPR domain); UniProt Q07866-1; also called KLC1 fragment; KLC1 TPR domain; source: E. coli (BL21, BL21-CodonPlus-RIL or Rosetta), purified; not shown: GST, N-terminal, kept
For the molecule B1, in the data set with mouse JIP3[186-505], the binding result is on record as “binds”.

B2: JIP4[1-103] (domain or fragment, human, UniProt O60271-1 1-103, looked up)
chain: MELEDGVVYQEEPGGSGAVMSERVSGLAGSIYREFERLIGRYDEEVVKELMPLVVAVLENLDSVFAQDQEHQVELELLRDDNEQLITQYEREKALRKHAEEKF
notes: human JIP4, residues 1-103 (RH1 domain); UniProt O60271-1; Dimer by AUC; also called JIP4-RH1; RH1 domain of JIP4; source: E. coli (BL21, BL21-CodonPlus-RIL or Rosetta), purified
With B2, the “stoichiometry N” value in data set [1] was determined as 2.

B3: JIP3[1-108] (domain or fragment, human, UniProt Q9UPT6-1 1-108, looked up)
chain: MMEIQMDEGGGVVVYQDDYCSGSVMSERVSGLAGSIYREFERLIHCYDEEVVKELMPLVVNVLENLDSVLSENQEHEVELELLREDNEQLLTQYEREKALRRQAEEKF
notes: UniProt Q9UPT6-1; Dimer by AUC; also called JIP3-RH1; RH1 domain of JIP3; source: E. coli (BL21, BL21-CodonPlus-RIL or Rosetta), purified
As for B3, in data set [1], the “stoichiometry N” value was 2.

B4: JIP3[1-108] V60Q (domain or fragment, human, UniProt Q9UPT6-1 1-108, looked up)
chain: MMEIQMDEGGGVVVYQDDYCSGSVMSERVSGLAGSIYREFERLIHCYDEEVVKELMPLVQNVLENLDSVLSENQEHEVELELLREDNEQLLTQYEREKALRRQAEEKF
notes: human JIP3, residues 1-108 (RH1 domain) with V60Q; UniProt Q9UPT6-1; Dimer by AUC; also called JIP3-RH1 V60Q; source: E. coli (BL21, BL21-CodonPlus-RIL or Rosetta), purified
As for B4, the “stoichiometry N” value in data set [1] amounted to 2.
